For one substance, ratio to parent results are on record in PMC6874091.

The test deals with 14-3-3 (endogenous, detected with a 14-3-3 antibody; isoform not told) (UniProt Q04917). Description: anti-FLAG co-immunoprecipitation, western blot densitometry. The settings on record: HeLa cells, transfected; mean ± SD of three experiments; read off a plot. On the technique in general: A western blot detects proteins with antibodies after separation by electrophoresis.
Chain of UniProt Q04917 (Q04917 whole entry, canonical isoform): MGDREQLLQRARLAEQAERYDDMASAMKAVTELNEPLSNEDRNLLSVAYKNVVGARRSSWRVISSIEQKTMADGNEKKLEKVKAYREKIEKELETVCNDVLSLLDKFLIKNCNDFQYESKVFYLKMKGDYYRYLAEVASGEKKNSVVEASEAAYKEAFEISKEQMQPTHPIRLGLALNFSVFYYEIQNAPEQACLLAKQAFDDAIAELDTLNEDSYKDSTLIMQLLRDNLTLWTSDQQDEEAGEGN

On to “3xFLAG-BPLF1 (amino acid residues 1-235), catalytically active N-terminal deconjugase domain of the Epstein-Barr virus large tegument protein BPLF1 (from UniProt P03186) D86R; D90R”, for which the ratio to parent was determined as 0.49.
